This data set deals with the molecule itself. Put plainly: SEC; Superdex 200 increase 10/300 GL, 50 mM potassium phosphate buffer, pH 7.0, 4°C; solution obtained after heating the apoferritin hydrogel at 90°C for 30 min; sizes estimated from a standard curve of standard proteins.

B1: horse L apoferritin without eight N-terminal residues (Fer8) (domain or fragment, UniProt P02791 9-175, looked up)
chain: YSTEVEAAVNRLVNLYLRASYTYLSLGFYFDRDDVALEGVCHFFRELAEEKREGAERLLKMQNQRGGRALFQDLQKPSQDEWGTTLDAMKAAIVLEKSLNQALLDLHALGSAQADPHLCDFLESHFLDEEVKLIKKMGDHLTNIQRLVGSQAGLGEYLFERLTLKHD
notes: horse L ferritin (ferritin light chain), printed as 'without eight N-terminal residues'; theoretical [Fer8 subunit + H+] = 19148; The limit 9-end follows from 'without eight N-terminal residues'; also called recombinant horse apoferritin; Fer8 subunit; source: E. coli Nova blue cells (plasmid pKIT8), purified (heat 60°C, Q Sepharose, HiTrap Q HP, SEC); gelled by acid denaturation and …
Turning to B1, the “stoichiometry N” value was 24.
